Literature values in patent publication US10888616B2 (Latitude Pharmaceuticals, Inc., priority 2015, dated 2021).

Columns and labels:
[1] = acidic solution (pH 2-4), within 24 hours at 37° C.

What does the source list for “Glucagon: single-chain polypeptide of 29 amino acid residues, sequence in FIG. 1 (SEQ ID NO: 1)”?
solubility in pure water or alcohol: insoluble; gelling in water (pH 3 or lower): will aggregate to form a gel within hours; solubility in water (physiological pH (pH 4-8)): insoluble; glucagon broken down into degradation products [1]: 5-70%
